The values that follow come from patent US20260258115A1 (MAPP BIOPHARMACEUTICAL, published 2026).

Substitutions are numbered along the chain they refer to.

Experiment [1] has as its target T1, RSV postfusion F (postF), subtype A (respiratory syncytial virus subtype A, UniProt P03420 26-513).
T1 construct: also called Postfusion subtype A; F deltaFP
In words: BLI. For orientation: In BLI a coated tip is dipped into the sample, and binding shifts an interference pattern.

Experiment [2] has as its target T2, RSV prefusion F (preF), subtype B (respiratory syncytial virus subtype B).
T2 construct: also called Prefusion subtype B
Nature of the experiment: BLI, IgG.

Experiment [3] concerns the target RSV F on RSV subtype A virus (mKate-RSV A2) (respiratory syncytial virus A2, UniProt P03420 26-574). In words: cell-based or functional assay.
The target in experiment [4] is RSV F on RSV subtype B virus (mKate-RSV B 18537) (respiratory syncytial virus B 18537, UniProt P13843 26-574). In words: cell-based or functional assay.

B1: ADI-14337 (antibody, V domains shown)
VH: EVQLVESGGGLVKPGGSLRLSCAASGFTFSSYSMNWVRQAPGKGLEWVSSISSSSSYIYYADSVKGRFTISRDNAKNSLYLQMNSLRAEDTAVYYCAREYYDSSGYTNWFDPWGQGTLVTVSS
VL: QPVLTQPPSVSGAPGQRVTISCTGSSSNIGAGYDVHWYQQLPGTAPKLLIYGNSNRPSGVPDRFSGSKSGTSASLAITGLQAEDEADYYCQSYDSSLAWVFGGGTQLTVL
notes: full-length IgG; also called Ab 5
Regarding B1, the binding result in experiment [1] is “no binding”. Also, the Kd in experiment [2] came out at 2.11 nM. Moreover, the “Neut IC50 subtype A” value in experiment [3] is 0.1 µg/mL. In addition, the “Neut IC50 subtype B” value in experiment [4] amounted to 0.07 µg/mL.

B2: ADI-14346 (antibody, V domains shown)
VH: EVQLLESGGGLVKPGGSLRLSCAASGFRFSSYSMNWVRQAPGKWLEWVSSISASSSYTDYADSVKGRFTISRDNAKNSLYLQMNSLRAEDTAVYYCAREDYLSSGSLLHWFDPWGQGTLVTVSS
VL: B1 VL with S54N, S96R, A98S, W99V, V100L, Q106K, L107V
notes: full-length IgG; also called Ab 14
As for B2, in experiment [1], the binding result is “no binding”. In experiment [2], this molecule returned a Kd of 0.925 nM. For the same molecule, in experiment [3], the “Neut IC50 subtype A” value turned out to be 0.05 µg/mL. Also, the “Neut IC50 subtype B” value in experiment [4] amounted to 0.07 µg/mL.

B3: ADI-19501 (antibody, V domains shown)
VH: QVQLVQSGAEVKKPGASVKVSCKASGYAFTNYGVSWVRQAPGQGLEWMGWISVYNGNTNYAQKLQGRVTMTTDTSTSTAYMELRSLRSDDTALYYCARDPPSEGAAGLFDYWGQGTLVTISS
VL: DIVMTQSPLSLPVTLGQPASFSCRSSQSLVYSDGNTYLSWFQQRPGQSPRRLIYKVSNRDSGVPDRFSGSGSGTDFTLKISRVEAEDVGVYYCMQGTHWPCTFGQGTKVEIK
notes: full-length IgG
For the molecule B3, the binding result in experiment [1] is given as “no binding”. The same molecule came in with a Kd in experiment [2] of 1.59 nM. In addition, the “Neut IC50 subtype A” value in experiment [3] worked out at 0.02 µg/mL. In addition, the “Neut IC50 subtype B” value in experiment [4] is 0.02 µg/mL.

B4: ADI-22757 (antibody, V domains shown)
VH: EVQLLESGAEVKKPGASVKVSCKASGYTFSNYGISWVRQAPGQGLEWMGWISVYNGNTEYAQKFQGRLTMTTDTSTSTAYMELRSLRSDDTAVYYCARDPPAVAASFMDVWGQGTTVTVSS
VL: B3 VL with D1E, M4L, F21I, Y31H, D33E, V90L, Y92F, C101P, Q105G
notes: full-length IgG
Consider B4, for which, in experiment [1], the binding result is reported as “no binding”. The Kd in experiment [2] amounted to 0.538 nM. For the same molecule, the “Neut IC50 subtype A” value in experiment [3] is 0.06 µg/mL. Moreover, the “Neut IC50 subtype B” value in experiment [4] came out at 0.07 µg/mL.

B5: ADI-14344 (antibody, V domains shown)
VH: QVQLVQSGGGLVQPGGSLRLSCAASGFTFRTYALSWVRQAPGKGLEWVSSILGSGGSTYYADSVKGRFTISRDNSKNTLYLQLNSLRAEDTAVYFCAKLAVAGLLHHYYGLDVWGQGTTVTVSS
VL: SYELTQPPSVSVSPGQTASITCSGDKLENKYACWYQQKPGQSPVLLIYQDTKRPSGIPERFSGSNSGTTATLTISGTQALDEADYYCQAWDSSTASVLFGGGTQLTVL
notes: full-length IgG; also called Ab 12
For B5, the binding result in experiment [1] was “no binding”. Also, in experiment [2], the Kd is 0.586 nM. For the same molecule, in experiment [3], the “Neut IC50 subtype A” value stood at 8.68 µg/mL. In addition, in experiment [4], the “Neut IC50 subtype B” value came out at 1.2 µg/mL.

B6: ADI-14367 (antibody, V domains shown)
VH: EVQLLESGGGLVQPGGSLRLSCAASGFTFGSYDMNWVRQAPGKGLEWVSGISGSGDATYYADSVKGRFTISRDNSKNMLYLQMNSLSAEDMAVYYCARDRAFTMKYNSNWYKIYWGQGTMVTVSS
VL: EIVLTQSPGTLSLSPGERATLSCRASQSVTSSYLAWYQQKPGQAPRLLIYGAFSRATGIPDRFSGSGSGTDFTLTISRLEPEDFAVYYCHHYGTSRWTFGQGTKVDIK
notes: full-length IgG; also called Ab 35
As to B6, the binding result in experiment [1] was “no binding”. In addition, the affinity in experiment [2], expressed as Kd, was 0.269 nM. For the same molecule, in experiment [3], the “Neut IC50 subtype A” value turned out to be 3.94 µg/mL. Also, the “Neut IC50 subtype B” value in experiment [4] was 0.33 µg/mL.

B7: ADI-14335 (antibody, V domains shown)
VH: EVQLVESGGGLVQPGRSLRLSCTASGFTFGDYAMSWVRQAPGKGLEWVGFIRSNAFGGTSEYAASVKGRFTISRDDSKSIAYLQMNSLKTEDTAVYYCTRDGIHDYGDSYYYYGMDVWGQGTTVTVSS
VL: DIQLTQSPSSLSASVGDRVTITCRASQTVTTYLNWYQQKPGKAPKLLIYGASSLQSGVPSRFSGSGSGTDFTLTINSLQPEDFATYYCQQTYSTVTFGPGTKVEIK
notes: full-length IgG; also called Ab 3
With B7, the binding result in experiment [1] is given as “no binding”. In experiment [2], the Kd is 0.889 nM. In addition, the “Neut IC50 subtype A” value in experiment [3] is 0.32 µg/mL. Further, the “Neut IC50 subtype B” value in experiment [4] was found to be 0.1 µg/mL.

B8: ADI-25524 (antibody, V domains shown)
VH: EVQLLESGGGLVKPGGSLRLSCAASGFTFSSYSMNWVRQAPGKGLEWVSSISSSSSYIYYADSVKGRFTISRDNAKNSLYLQMNSLRAEDTAVYYCAREWSPIVVVTNAFDIWGQGTMVTVSS
VL: QSVLTQPPSVSGAPGQRVTISCTGSSSNIGAGYDVHWYQQLPGTAPKLLIYGNSNRPSGVPDRFSGSKSGTSASLAITGLQAEDEADYYCQSYDSSLSGWVFGGGTKVTVL
notes: full-length IgG
Consider B8, for which the binding result in experiment [1] is reported as “no binding”. The same molecule gave a Kd in experiment [2] of 23.4 nM. Further, the “Neut IC50 subtype A” value in experiment [3] worked out at 1.77 µg/mL. Further, in experiment [4], the “Neut IC50 subtype B” value was 2.09 µg/mL.

B9: ADI-14333 (antibody, V domains shown)
VH: EVQLVETGGGLVKPGGSLRLSCADSGFPFSSYSMHWVRQAPGKGLEWVASISSSSSFINYADSVKGRFTISRDNAKNSLYLQMNSLRAEDTAVYFCAREAACGGDCYGYYFDYWGQGTLVTVSS
VL: B8 VL with L4V, V10A, L48V, Y51S, D62A, W100S, K107Q, V108L
notes: full-length IgG; also called Ab 1
Regarding B9, the binding result in experiment [1] was “no binding”. The Kd in experiment [2] is 0.904 nM. In addition, the “Neut IC50 subtype A” value in experiment [3] was 0.07 µg/mL. In addition, in experiment [4], the “Neut IC50 subtype B” value is 0.09 µg/mL.

B10: ADI-14364 (antibody, V domains shown)
VH: QVQLVQSGAEVKKPGESLKISCKGSGYSFTSHWIGWVRQMPGKGLEWMGITDPGDSDTRYSPSFQGQVTISADKSISTAYLQWSSLKASDTAMYYCAREPRRWMTTETNGPYYFDNWGQGTLVTVSS
VL: SYVLTQPPSVSVAPGKTARITCGGNNIGSKSVHWYQQKPGQAPVLVIYYDSDRPSGIPERFSGSNSGNTATLTISRVEAGDEADYYCQVWDSSSDNRVFGGGTKVTVL
notes: full-length IgG; also called Ab 32
As for B10, the binding result in experiment [1] is “no binding”. The molecule also returned a dissociation constant (Kd) in experiment [2] of 61.6 nM. The “Neut IC50 subtype A” value in experiment [3] was 0.03 µg/mL. Further, the “Neut IC50 subtype B” value in experiment [4] is 2.39 µg/mL.

B11: ADI-14357 (antibody, V domains shown)
VH: EVQLVESGGGVVQPGRSLRLSCAASGFTFSNYAMHWVRQAPGKGLEWVSIISYDGSNKYYADSVKGRFTISRDNSKNTLYLQINSLRTEDTAVYYCARARKRIPIVVVTAPYYYGMDVWGQGTTVTVSS
VL: DIRVTQSPSSLSASVGDRVTITCRASQSISSYLHWYQQQPGKAPNLLIYAASNLQSGVPSRFSGSGSGTDFTLTISSLQPEDFATYYCQQSYTTPHTFGQGTKVEIK
notes: full-length IgG; also called Ab 25
Take B11: the binding result in experiment [1] is given as “no binding”. In experiment [2], this molecule yielded a Kd of 0.306 nM. The “Neut IC50 subtype A” value in experiment [3] was found to be 1.24 µg/mL. Also, in experiment [4], the “Neut IC50 subtype B” value was found to be 0.88 µg/mL.

B12: ADI-14345 (antibody, V domains shown)
VH: QITLKESGAEVKKPGASVKVSCKVSGYTLSDFSMHWVRQAPGKGLEWMGSFDPEDGETVDAQKFQGRVTMTEDRSTATAYMELRSLRSEDTAVYYCGTPASAGQVDYWGQGTLVTVSS
VL: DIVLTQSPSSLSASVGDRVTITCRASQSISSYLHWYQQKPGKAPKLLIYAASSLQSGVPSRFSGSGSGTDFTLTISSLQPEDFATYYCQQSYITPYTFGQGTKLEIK
notes: full-length IgG; also called Ab 13
For the molecule B12, the binding result in experiment [1] is given as “no binding”. This molecule also displayed an equilibrium dissociation constant (Kd) in experiment [2] of 5.26 nM. In addition, the “Neut IC50 subtype A” value in experiment [3] turned out to be 2.3 µg/mL. Besides, the “Neut IC50 subtype B” value in experiment [4] was found to be 0.87 µg/mL.

B13: ADI-22774 (antibody, V domains shown)
VH: EVQLLESGGGLVKPGGSLRLSCAASGFTFSSYSMNWVRQAPGKGLEWVSSISSSSSYIYYADSVKGRFTISRDNAKNSLYLQMNSLRAEDTAVYYCAREGASGYNYRYYFDYWGQGTLVTVSS
VL: QSVLTQPPSVSGAPGQRVTISCTGSSSNIGAGYDVHWYQQFPGAAPKLLIYGNNNRPSGVPDRFSGSKSGTSASLAITGLQADDEADYYCQSYDSSLSGYVVFGGGTKLTVL
notes: full-length IgG
On to B13, for which the binding result in experiment [1] is “no binding”. Also, binding in experiment [2] was put at a Kd of 4.28 nM. Also, the “Neut IC50 subtype A” value in experiment [3] worked out at 0.29 µg/mL. Further, the “Neut IC50 subtype B” value in experiment [4] turned out to be 7.53 µg/mL.

B14: ADI-14347 (antibody, V domains shown)
VH: EVQLVESGGGLVKPGGSLRLSCAASGFTFRDYYMNWIRQAPGKGLEWVSDISASSSYTNYADSVKGRFTISRDNAKTSLYLQMNSLRAEDTAVYYCAREVVTAMGGYYFDYWGQGTLVTVSS
VL: B13 VL with L4V, F41L, A44T, D83E, Y100S, V101G, G105T, L109V
notes: full-length IgG; also called Ab 15
For B14, the binding result in experiment [1] was “no binding”. The same molecule came in with a Kd in experiment [2] of 2.54 nM. Besides, the “Neut IC50 subtype A” value in experiment [3] stood at 0.11 µg/mL. In addition, the “Neut IC50 subtype B” value in experiment [4] amounted to 0.05 µg/mL.

B15: ADI-25549 (antibody, V domains shown)
VH: QVQLVQSGGGLVKPGGSLRLSCAASGFTFSSYSMNWVRQAPGKGLEWVSSISSSSSYIYYADSVKGRFTISRDNAKNSLYLQMNSLRAEDTAVYYCARVSSGWYGGGAYYFDYWGQGTLVTVSS
VL: B13 VL with L4V, F41L, A44T, N54S, D83E, G99A, Y100L, V101Y, G105T, L109V
notes: full-length IgG
As for B15, the binding result in experiment [1] was “no binding”. In addition, the Kd in experiment [2] worked out at 28.8 nM. In addition, the “Neut IC50 subtype A” value in experiment [3] came to 11.5 µg/mL. For the same molecule, in experiment [4], the “Neut IC50 subtype B” value was 6.02 µg/mL.

B16: ADI-14340 (antibody, V domains shown)
VH: EVQLVESGGGLVKPGGSLRLSCAASGFTLSSYTMNWVRQAPGRGLEWVSSIYSTSSYIYYADSVKGRFTISRDNAKNSLYLQMNSLRAEDTAVYYCARDSQAVTGTDLYFDSWGQGTLVTVSS
VL: QPGLTQPPSVSVAPGKTARITCGGNNIGRKNVHWYQQKPGQAPILVIYYDSDRPSGIPERFSGSNSGNTATLTISRVEDGDEADYYCQVWDSSNDHVIFGGGTQLTVL
notes: full-length IgG; also called Ab 8
Take B16: in experiment [1], the binding result is “no binding”. The same molecule had a Kd in experiment [2] of 98 nM. For the same molecule, the “Neut IC50 subtype A” value in experiment [3] turned out to be 6.63 µg/mL. The “Neut IC50 subtype B” value in experiment [4] turned out to be 1.94 µg/mL.

Broadly, the Kd is the equilibrium constant for the complex coming apart.
